Assay results: patent US6489128
Several values for one entry are separate records, joined by “and”; a condition that tells them apart may be missing. Identical values can stand only once.

Target: trypsin
Assay: cell-based or functional assay

With “inter-alpha trypsin inhibitor (ITI), native complex of light chain and heavy chain, affinity purified from human serum (from UniProt P19823 55-702)” the inhibition of trypsin hydrolysis of P-toluenesulphonyl-L-arginine methyl ester (TAME) was 5 µg and 10 µg.
